Test results taken from PMC3786575.

Target: USF-1-Flag (UniProt P22415)
Chain of UniProt P22415 (P22415 whole entry): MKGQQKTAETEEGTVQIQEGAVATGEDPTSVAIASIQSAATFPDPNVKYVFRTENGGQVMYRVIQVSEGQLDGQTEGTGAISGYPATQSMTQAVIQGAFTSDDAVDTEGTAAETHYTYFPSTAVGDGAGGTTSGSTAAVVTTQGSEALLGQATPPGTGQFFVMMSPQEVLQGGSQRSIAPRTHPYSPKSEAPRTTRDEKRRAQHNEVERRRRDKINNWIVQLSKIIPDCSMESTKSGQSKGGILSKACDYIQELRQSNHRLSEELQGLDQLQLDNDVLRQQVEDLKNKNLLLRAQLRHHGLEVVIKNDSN

Row | USF-dependent FAS promoter activation, luciferase reporter (Fig. 3D) | Substance
1 | 4 fold | BAF60c-HA (from UniProt Q6STE5 1-483) (natural protein)
2 | 4 fold | HA-tagged BAF60c S247D (from UniProt Q6STE5 1-483) (natural protein)
